Paper PMC4637274

Legend:
[1] = biological target: 16055 gp140 NFL2P (HIV-1 (16055)); test: negative-stain EM of unliganded trimers
[2] = biological target: BG505 gp140 NFL2P (HIV-1 (BG505)); test: negative-stain EM of unliganded trimers
[3] = biological target: BG505 gp140 NFL2P (HIV-1 (BG505)); test: SEC + native gel or EMSA
[4] = biological target: JRFL gp140 NFL2P (HIV-1 (JRFL)); test: negative-stain EM of unliganded trimers
[5] = biological target: JRFL gp140 NFL2P (HIV-1 (JRFL)); test: SEC + native gel or EMSA

16055 gp140 NFL2P was tested, and the stoichiometry N [1] was 3.
BG505 gp140 NFL2P showed a stoichiometry N [2] of 3 and a stoichiometry N [3] of 3.
With JRFL gp140 NFL2P the stoichiometry N [4] was 3 and the stoichiometry N [5] was 3.
